Laboratory results taken from patent US20050249738A1.

Target: CD22 on human B cells (human) (UniProt P20273)
Assay: cell-based or functional assay

UniProt P20273, sequence (P20273 20-847): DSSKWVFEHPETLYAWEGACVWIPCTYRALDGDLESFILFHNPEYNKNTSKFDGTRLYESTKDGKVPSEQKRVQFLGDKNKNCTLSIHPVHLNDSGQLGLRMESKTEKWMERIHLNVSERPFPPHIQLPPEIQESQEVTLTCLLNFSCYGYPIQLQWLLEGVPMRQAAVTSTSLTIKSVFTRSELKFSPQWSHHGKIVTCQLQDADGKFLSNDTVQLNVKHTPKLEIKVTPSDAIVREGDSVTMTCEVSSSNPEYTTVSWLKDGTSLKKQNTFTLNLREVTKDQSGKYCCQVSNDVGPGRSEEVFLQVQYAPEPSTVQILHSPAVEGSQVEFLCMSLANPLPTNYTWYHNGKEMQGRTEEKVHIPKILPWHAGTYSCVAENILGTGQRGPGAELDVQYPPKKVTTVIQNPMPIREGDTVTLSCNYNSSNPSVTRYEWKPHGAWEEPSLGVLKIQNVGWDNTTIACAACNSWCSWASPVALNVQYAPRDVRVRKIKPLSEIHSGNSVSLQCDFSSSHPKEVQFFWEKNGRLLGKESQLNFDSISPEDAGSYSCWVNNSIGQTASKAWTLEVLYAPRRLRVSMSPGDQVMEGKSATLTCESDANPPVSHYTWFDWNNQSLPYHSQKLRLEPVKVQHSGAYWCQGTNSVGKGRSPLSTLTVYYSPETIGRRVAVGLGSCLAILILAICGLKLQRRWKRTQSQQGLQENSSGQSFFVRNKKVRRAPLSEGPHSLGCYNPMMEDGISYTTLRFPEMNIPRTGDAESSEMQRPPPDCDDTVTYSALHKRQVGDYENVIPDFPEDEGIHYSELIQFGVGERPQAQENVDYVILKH

Substance: LL2-ONCONASE® immunotoxin
- IC50 of protein synthesis inhibition, CA 46 cells, 24 h: 0.8 nM
- IC50 of protein synthesis inhibition, Daudi cells, 24 h: 0.1 nM
- IC50 of protein synthesis inhibition, Raji cells, 24 h: 0.8 nM
